Measurements from patent US20140087995A1 (published 2014).
Numbered stars: 1 amine (or outer) side, 2 acyl side, 3 side chain; on linkers, the order of the positions; unused ones are H or OH. Bridge positions count the residues as written; N and C are the ends. Side chains are listed from the residue outwards. Ends that are not written are not given here. * marks the point of attachment. C20 diacid = O=C(O)CCCCCCCCCCCCCCCCCCC(=O)*; γGlu = O=C(O)[C@H](CCC(=O)[*:2])N[*:1]; AEEA = NCCOCCOCC(=O)O

T1: human amylin receptor (amylin 3(a) receptor: human calcitonin receptor plus RAMP-3) (human, UniProt P30988 25-474; O60896 24-148, limits assumed)
T1 sequence (looked up) 1: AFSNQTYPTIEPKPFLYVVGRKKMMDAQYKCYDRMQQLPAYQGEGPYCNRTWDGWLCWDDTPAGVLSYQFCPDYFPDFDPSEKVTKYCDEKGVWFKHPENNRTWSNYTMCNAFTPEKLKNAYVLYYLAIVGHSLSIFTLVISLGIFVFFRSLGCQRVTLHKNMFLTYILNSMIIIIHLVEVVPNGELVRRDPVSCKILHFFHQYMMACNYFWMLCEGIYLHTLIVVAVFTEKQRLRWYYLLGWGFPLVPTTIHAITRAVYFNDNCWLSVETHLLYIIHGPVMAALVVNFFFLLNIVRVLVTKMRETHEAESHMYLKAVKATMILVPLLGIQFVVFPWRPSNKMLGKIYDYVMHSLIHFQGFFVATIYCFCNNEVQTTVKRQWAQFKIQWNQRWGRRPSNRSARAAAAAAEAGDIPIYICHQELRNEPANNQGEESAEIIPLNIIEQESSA
T1 sequence (looked up) 2: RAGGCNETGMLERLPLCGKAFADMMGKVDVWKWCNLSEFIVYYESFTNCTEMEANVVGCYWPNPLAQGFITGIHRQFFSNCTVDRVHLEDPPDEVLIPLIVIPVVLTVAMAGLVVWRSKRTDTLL

T2: human calcitonin receptor (human, UniProt P30988 25-474)
T2 sequence (looked up): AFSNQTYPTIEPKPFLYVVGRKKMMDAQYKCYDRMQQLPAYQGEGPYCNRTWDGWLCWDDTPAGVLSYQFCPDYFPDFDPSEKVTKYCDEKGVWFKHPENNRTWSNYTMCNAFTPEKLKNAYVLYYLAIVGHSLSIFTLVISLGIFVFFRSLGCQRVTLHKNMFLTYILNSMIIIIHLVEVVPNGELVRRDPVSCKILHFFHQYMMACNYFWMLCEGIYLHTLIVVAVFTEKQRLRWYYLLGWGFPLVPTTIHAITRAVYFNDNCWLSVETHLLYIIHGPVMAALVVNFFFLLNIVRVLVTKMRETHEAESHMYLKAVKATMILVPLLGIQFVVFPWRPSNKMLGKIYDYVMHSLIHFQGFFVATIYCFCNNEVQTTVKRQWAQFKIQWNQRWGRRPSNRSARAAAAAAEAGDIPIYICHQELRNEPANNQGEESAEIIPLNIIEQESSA


Experiments:
[1] = target: T1, human amylin receptor (amylin 3(a) …); assay: cell-based or functional assay
[2] = target: T2, human calcitonin receptor; assay: cell-based or functional assay

Row | Binder | Ratio hCT/hAmylin funct. [1] [ratio] | hAmylin-R funct. EC50 [1] [nM] | hCTR funct. EC50 [2] [nM]
1 | K([AEEA-AEEA-γGlu-C20 diacid])CNTATCATQRLANFLRHSSPNFGAIPSSTNVGSETY-NH2 (disulfide 2-7; N-terminus assumed; SMILES CC[C@H](C)[C@H](NC(=O)[C@H](C)NC(=O)CNC(=O)[C@H](Cc1ccccc1)NC(=O)[C@H](CC(N)=O)NC(=O)[C@@H]1CCCN1C(=O)[C@H](CO)NC(=O)[C@H](CO)NC(=O)[C@H](Cc1c[nH]cn1)NC(=O)[C@H](CCCNC(=N)N)NC(=O)[C@H](CC(C)C)NC(=O)[C@H](Cc1ccccc1)NC(=O)[C@H](CC(N)=O)NC(=O)[C@H](C)NC(=O)[C@H](CC(C)C)NC(=O)[C@H](CCCNC(=N)N)NC(=O)[C@H](CCC(N)=O)NC(=O)[C@@H](NC(=O)[C@H](C)NC(=O)[C@@H]1CSSC[C@H](NC(=O)[C@@H](N)CCCCNC(=O)COCCOCCNC(=O)COCCOCCNC(=O)CC[C@H](NC(=O)CCCCCCCCCCCCCCCCCCC(=O)O)C(=O)O)C(=O)N[C@@H](CC(N)=O)C(=O)N[C@@H]([C@@H](C)O)C(=O)N[C@@H](C)C(=O)N[C@@H]([C@@H](C)O)C(=O)N1)[C@@H](C)O)C(=O)N1CCC[C@H]1C(=O)N[C@@H](CO)C(=O)N[C@@H](CO)C(=O)N[C@H](C(=O)N[C@@H](CC(N)=O)C(=O)N[C@H](C(=O)NCC(=O)N[C@@H](CO)C(=O)N[C@@H](CCC(=O)O)C(=O)N[C@H](C(=O)N[C@@H](Cc1ccc(O)cc1)C(N)=O)[C@@H](C)O)C(C)C)[C@@H](C)O, Synthetic acylated analogue of human amylin; also called compound 25) | 46.2 | 0.217 | 10
2 | K([AEEA-γGlu-C20 diacid])CNTATCATQRLANFLRHSSPNFGAIPSSTNVGSETY-NH2 (disulfide 2-7; N-terminus assumed; SMILES CC[C@H](C)[C@H](NC(=O)[C@H](C)NC(=O)CNC(=O)[C@H](Cc1ccccc1)NC(=O)[C@H](CC(N)=O)NC(=O)[C@@H]1CCCN1C(=O)[C@H](CO)NC(=O)[C@H](CO)NC(=O)[C@H](Cc1c[nH]cn1)NC(=O)[C@H](CCCNC(=N)N)NC(=O)[C@H](CC(C)C)NC(=O)[C@H](Cc1ccccc1)NC(=O)[C@H](CC(N)=O)NC(=O)[C@H](C)NC(=O)[C@H](CC(C)C)NC(=O)[C@H](CCCNC(=N)N)NC(=O)[C@H](CCC(N)=O)NC(=O)[C@@H](NC(=O)[C@H](C)NC(=O)[C@@H]1CSSC[C@H](NC(=O)[C@@H](N)CCCCNC(=O)COCCOCCNC(=O)CC[C@H](NC(=O)CCCCCCCCCCCCCCCCCCC(=O)O)C(=O)O)C(=O)N[C@@H](CC(N)=O)C(=O)N[C@@H]([C@@H](C)O)C(=O)N[C@@H](C)C(=O)N[C@@H]([C@@H](C)O)C(=O)N1)[C@@H](C)O)C(=O)N1CCC[C@H]1C(=O)N[C@@H](CO)C(=O)N[C@@H](CO)C(=O)N[C@H](C(=O)N[C@@H](CC(N)=O)C(=O)N[C@H](C(=O)NCC(=O)N[C@@H](CO)C(=O)N[C@@H](CCC(=O)O)C(=O)N[C@H](C(=O)N[C@@H](Cc1ccc(O)cc1)C(N)=O)[C@@H](C)O)C(C)C)[C@@H](C)O, Synthetic acylated analogue of human amylin; also called compound 26) | 29.9 | 0.212 | 6.34
3 | K([AEEA-γGlu-C20 diacid])CNTATCATQRLANFLRHSSPNFGAIPPSTPVGSNTY-NH2 (disulfide 2-7, Synthetic acylated analogue of human amylin; also called compound 53) | 9.8 | 0.064 | 0.625
